What was measured:
Experiment in all cases: SPR (BIACORE 3000), hGLP-1R/GST amine-coupled to CM5 chip, 1:1 Langmuir fit
[1] = target: Native exendin-4 (exenatide: BYETTA)
Protocol: (§1) The binding activity of the GLP-1 receptor and the insulinotropic peptide derivative with a modified N-terminal charge were measured using a surface plasmon resonance (SPR) apparatus (BIACORE 3000, GE Healthcare).
(§2) The GLP-1 receptor was expressed from CHO-DG44 cells in hGLP-1R/GST form. The expressed hGLP-1R/GST was immobilized to a CM5 chip by amine coupling. To the hGLP-1R/GST-immobilized CM5 chip, the insulinotropic peptide derivatives with a modified N-terminal charge were diluted by concentration and then added to determine the binding activity with the GLP-1 receptor.

[2] = target: imidazoacetyl-exendin-4 (CA-exendin-4)
Protocol: as §1, §2

[3] = target: desamino-histidyl-exendin-4 (DA-exendin-4)
Protocol: as §1, §2

[4] = target: DA-exendin-4-propyl-amide
Protocol: as §1, §2

[5] = target: beta-hydroxy imidazopropionyl-exendin-4 (HY-exendin-4)
Protocol: as §1, §2

B1: hGLP-1R/GST (receptor)
chain: RPQGATVSLWETVQKWREYRRQCQRSLTEDPPPATDLFCNRTFDEYACWPDGEPGSFVNVSCPWYLPWASSVPQGHVYRFCTAEGLWLQKDNSSLPWRDLSECEESKRGERSSPEEQLLFLY
notes: Expressed from CHO-DG44 cells and immobilized on a CM5 chip by amine coupling; also called GLP-1 receptor; GLP-1 receptor in hGLP-1R/GST form; not shown: GST (glutathione S-transferase) fusion partner
[1]
  Kd: 1.4 nM
  koff: 0.000526 s⁻¹
  kon: 370000 M⁻¹ s⁻¹
[2]
  Kd: 26.3 nM
  koff: 0.00315 s⁻¹
  kon: 120000 M⁻¹ s⁻¹
[3]
  Kd: 32.2 nM
  koff: 0.00365 s⁻¹
  kon: 113000 M⁻¹ s⁻¹
[4]
  Kd: 32.6 nM
  koff: 0.00335 s⁻¹
  kon: 104000 M⁻¹ s⁻¹
[5]
  Kd: 42.7 nM
  koff: 0.00383 s⁻¹
  kon: 90000 M⁻¹ s⁻¹

— patent publication US20170226175A1 (HANMI PHARM, published 2017)
